Experimental data reported in patent US20160033523A1 (NOVOZYMES BIOPHARMA DK A S, published 2016).

B1: Wild type dog serum albumin (ligand)
chain: EAYKSEIAHRYNDLGEEHFRGLVLVAFSQYLQQCPFEDHVKLAKEVTEFAKACAAEESGANCDKSLHTLFGDKLCTVASLRDKYGDMADCCEKQEPDRNECFLAHKDDNPGFPPLVAPEPDALCAAFQDNEQLFLGKYLYEIARRHPYFYAPELLYYAQQYKGVFAECCQAADKAACLGPKIEALREKVLLSSAKERFKCASLQKFGDRAFKAWSVARLSQRFPKADFAEISKVVTDLTKVHKECCHGDLLECADDRADLAKYMCENQDSISTKLKECCDKPVLEKSQCLAEVERDELPGDLPSLAADFVEDKEVCKNYQEAKDVFLGTFLYEYARRHPEYSVSLLLRLAKEYEATLEKCCATDDPPTCYAKVLDEFKPLVDEPQNLVKTNCELFEKLGEYGFQNALLVRYTKKAPQVSTPTLVEVSRKLGKVGTKCCKKPESERMSCAEDFLSVVLNRLCVLHEKTPVSERVTKCCSESLVNRRPCFSGLEVDETYVPKEFNAETFTFHADLCTLPEAEKQVKKQTALVELLKHKPKATDEQLKTVMGDFGAFVEKCCAAENKEGCFSEEGPKLVAAAQAALV
notes: also called DSA
B2: Wild type pig serum albumin (ligand)
chain: DTYKSEIAHRFKDLGEQYFKGLVLIAFSQHLQQCPYEEHVKLVREVTEFAKTCVADESAENCDKSIHTLFGDKLCAIPSLREHYGDLADCCEKEEPERNECFLQHKNDNPDIPKLKPDPVALCADFQEDEQKFWGKYLYEIARRHPYFYAPELLYYAIIYKDVFSECCQAADKAACLLPKIEHLREKVLTSAAKQRLKCASIQKFGERAFKAWSLARLSQRFPKADFTEISKIVTDLAKVHKECCHGDLLECADDRADLAKYICENQDTISTKLKECCDKPLLEKSHCIAEAKRDELPADLNPLEHDFVEDKEVCKNYKEAKHVFLGTFLYEYSRRHPDYSVSLLLRIAKIYEATLEDCCAKEDPPACYATVFDKFQPLVDEPKNLIKQNCELFEKLGEYGFQNALIVRYTKKVPQVSTPTLVEVARKLGLVGSRCCKRPEEERLSCAEDYLSLVLNRLCVLHEKTPVSEKVTKCCTESLVNRRPCFSALTPDETYKPKEFVEGTFTFHADLCTLPEDEKQIKKQTALVELLKHKPHATEEQLRTVLGNFAAFVQKCCAAPDHEACFAVEGPKFVIEIRGILA
notes: also called PSA; pig SA
B3: Wild type rhesus monkey serum albumin (ligand)
chain: DTHKSEVAHRFKDLGEEHFKGLVLVAFSQYLQQCPFEEHVKLVNEVTEFAKTCVADESAENCDKSLHTLFGDKLCTVATLRETYGEMADCCAKQEPERNECFLQHKDDNPNLPPLVRPEVDVMCTAFHDNEATFLKKYLYEVARRHPYFYAPELLFFAARYKAAFAECCQAADKAACLLPKLDELRDEGKASSAKQRLKCASLQKFGDRAFKAWAVARLSQKFPKAEFAEVSKLVTDLTKVHTECCHGDLLECADDRADLAKYMCENQDSISSKLKECCDKPLLEKSHCLAEVENDEMPADLPSLAADYVESKDVCKNYAEAKDVFLGMFLYEYARRHPDYSVMLLLRLAKAYEATLEKCCAAADPHECYAKVFDEFQPLVEEPQNLVKQNCELFEQLGEYKFQNALLVRYTKKVPQVSTPTLVEVSRNLGKVGAKCCKLPEAKRMPCAEDYLSVVLNRLCVLHEKTPVSEKVTKCCTESLVNRRPCFSALELDEAYVPKAFNAETFTFHADMCTLSEKEKQVKKQTALVELVKHKPKATKEQLKGVMDNFAAFVEKCCKADDKEACFAEEGPKFVAASQAALA
notes: also called rmSA; rmSA Wt
B4: Soluble pig FcRn with pig beta2-microglobulin, HIS-tagged (Example 4) (receptor)
chain: ADNHRSLLYHLTAVSAPTPGAPAFWVSGWLGPQQYLSYNNLRAQAEPYGAWVWESQVSWYWEKETADLRNKQKLFLEALKTLEEGGPFTLQGLLGCELGPDNVSVPVATFALNGEEFMKFDTKLGTWDGEWPEARTIGSKWMQEPDAVNKEKTFLLYSCPHRLLGHLERGRGNLEWKEPPSMRMKARPGTAPGFSVLTCIAFSFYPPELQLRFLRNGLAAGSGESDIGPNGDGSFHAWSSLTVKSGDEHHYCCVVQHAGLAQPLTVEL
b2m: VARPPKVQVYSRHPAENGKPNYLNCYVSGFHPPQIEIDLLKNGEKMNAEQSDLSFSKDWSFYLLVHTEFTPNAVDQYSCRVKHVTLDKPKIVKWDRDH
notes: also called pFcRn; not shown: HIS-tag on the C-terminal of the beta-chain
B5: Soluble guinea pig FcRn with guinea pig beta2-microglobulin, HIS-tagged (receptor)
chain: AENHLSLLYHLTAVSSPATGSPAFWVSGWLGPQQYLSYSSLRREAEPCGAWVWETQVSWYWEMETTDLKNKESLFLEALKALGGKGPYTLQGILGCELSPDNSSVPTALFALNGEDFMEFHPENGSWTGDWPEALSISKQWEKKAEVVSKEKTFLLSSCPQRLLDHLERSRRNLEWKEPPSMRLKARPGDAGFSVLTCSAFSFYPPELQLRFLHNGLAAGTGEGGFGPNGDGSFHAWSSLTVQRGDEHNYRCLVQHAGLPQPLSVELESPAGSS
b2m: VLHAPRVQVYSRHPAENGKQNFINCYVSGFHPPQIEVELLKNGKKIDNVEMSDLSFSKDWTFYLLVHAAFTPNDSDEYSCRVSHITLSEPKIVKWDPNK
notes: Synthesized by GeneArt, expressed in HEK cells; also called gpFcRn; gpFcRN; not shown: HIS-tag on the C-terminal of the beta-chain
B6: Wild type guinea pig serum albumin (ligand)
chain: EAHKSEIAHRFNDLGEGHFKGLVLITLSQHLQKSPFEEHVKLVNEVTDFAKACVADESAQNCGKAIATLFGDKVCAIPSLRETYGELADCCAKEDPDRVECFLQHKDDNPNLPPFERPEPEALCTAFKENNDRFIGHYLYEVSRRHPYFYAPELLYYAEKYKNALTECCEAADKAACLTPKLDAIKEKALVSSAQQRLKCASLQKFGERAFKAWSVARLSQKFPKAEFAEISTIVTSLTKVTKECCHGDLLECADDRQELAKYMCEHQDSISSKLKECCVKPTLQKAHCILEIQRDELPTELPDLAVDFVEDKEVCKNFAEAKDVFLGTFLYEYSRRHPEYSIGMLLRIAKGYEAKLEKCCAEADPHACYAKVFDELQPLIDEPKKLVQQNCELFDKLGEYGFQNALAVRYTQKAPQVSTPTLVEYARKLGSVGTKCCSLPETERLSCTENYLALILNRLCILHEKTPVSERVTKCCTESLVNRRPCFSALHVDETYVPKPFHADSFTFHADICTLPEKEKQVKKQMALVELVKHKPKASEEQMKTVMGDFAAFLKKCCDADNKEACFTEDGPKLVAKCQATLA
notes: also called GPSA; guinea pig SA

Assays:
[1] = target: T1, Soluble dog FcRn, GST-tagged, with human beta2-microglobulin (dog; Schistosoma japonicum; human, UniProt P08515 1-218 = GST); assay: SPR, albumin over immobilized GST-FcRn, pH 6.0, 1:1 model
T1 construct: also called dFcRn
Experimental: (§1) SPR experiments were carried out using a Biacore 3000 instrument (GE Healthcare). Flow cells of CM5 sensor chips were coupled with soluble FcRn from one of the following species, human (shFcRn), rat (srFcRn), mouse (smFcRn), rhesus monkey (srmFcRn), dog (dFcRn) or pig (pFcRn) (˜900-2500 resonance units (RU)) using GE Healthcare amine coupling chemistry as per the manufacturer's instructions. The coupling was performed by injecting 2 or 10 μg/ml FcRn in 10 mM sodium acetate pH 5.0 (GE healthcare). Phosphate buffer (67 mM phosphate buffer, 0.15 M NaCl, 0.005% Tween 20) at pH 6.0) was used as running buffer and dilution buffer. Regeneration of the surfaces were done using injections of HBS-EP buffer (0.01 M HEPES, 0.15 M NaCl, 3 mM EDTA, 0.005% surfactant P20) at pH 7.4 (GE Healthcare). For determination of binding kinetics, serial dilutions of albumin (10-0.3 μM) were injected over immobilized receptors at a constant flow rate (50 μl/min) at 25° C. In all experiments, data were zero adjusted and the reference cell subtracted.

[2] = target: T2, Soluble pig FcRn, GST-tagged, with human beta2-microglobulin (Example 2) (pig; Schistosoma japonicum; human, UniProt P08515 1-218 = GST); assay: as above
T2 construct: also called pFcRn; spFcRn
Experimental: as §1

[3] = target: T1, Soluble dog FcRn, GST-tagged, with …; assay: SPR, albumin over immobilized GST-FcRn, pH 6.0, estimated from steady state
Experimental: as §1

[4] = target: T3, Soluble rhesus monkey FcRn, GST-tagged, with human beta2-microglobulin (rhesus monkey; Schistosoma japonicum; …, UniProt P08515 1-218 = GST); assay: SPR, albumin over immobilized GST-FcRn, pH 6.0, 1:1 model
T3 construct: also called srmFcRn; soluble rhesus macaque FcRn
Experimental: as §1

[5] = target: T4, N-terminally c-myc tagged albumin variant K573P (human, UniProt P02768 25-609); assay: SPR, albumin over immobilized His-FcRn, pH 5.5, 1:1 Langmuir
T4 construct: Substitution numbered on mature HSA, not on the tagged chain; also called c-myc-K573P
T4 sequence (P02768 other isoform, or with tags, fused parts or gaps K573P K573P): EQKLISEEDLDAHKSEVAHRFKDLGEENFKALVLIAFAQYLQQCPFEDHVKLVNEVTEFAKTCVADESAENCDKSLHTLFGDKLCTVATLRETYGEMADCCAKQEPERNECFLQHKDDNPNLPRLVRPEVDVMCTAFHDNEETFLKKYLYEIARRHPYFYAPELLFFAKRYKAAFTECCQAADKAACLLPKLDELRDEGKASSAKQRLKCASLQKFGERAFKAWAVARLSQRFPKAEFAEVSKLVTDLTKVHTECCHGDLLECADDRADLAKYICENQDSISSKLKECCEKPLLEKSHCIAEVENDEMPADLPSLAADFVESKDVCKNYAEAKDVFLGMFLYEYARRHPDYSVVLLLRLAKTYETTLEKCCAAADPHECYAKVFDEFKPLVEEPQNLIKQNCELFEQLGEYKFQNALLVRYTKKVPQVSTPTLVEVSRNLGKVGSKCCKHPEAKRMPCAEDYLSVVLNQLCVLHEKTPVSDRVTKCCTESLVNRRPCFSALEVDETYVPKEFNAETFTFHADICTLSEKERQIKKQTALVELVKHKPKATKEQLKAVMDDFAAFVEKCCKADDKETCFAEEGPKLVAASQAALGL
Experimental: as §1
(§2) The SPR assay was conducted with the following variations to the assay described in the Materials and Method section:
(§3) The soluble FcRn receptors were synthesized by GeneArt and expressed in HEK cells. The soluble FcRn contained a HIS-tag on the C-terminal of the Beta-chain instead of a GST on the heavy chain and the beta-chain used was the native beta-chain of the animal (see Materials and Method section for the corresponding sequences). The soluble FcRn was purified by a HIS trap column followed by an additional purification using an IgG column. The soluble FcRn receptor was diluted to 20 μg/mL. The phosphate buffer used as running buffer in the SPR assay was at pH 5.5 instead of pH 6.0. […] 1:1 Langmuir or Steady state model was used.

[6] = target: T5, HSA K573P (human, UniProt P02768 25-609); assay: as above
T5 construct: Variant of mature HSA
T5 sequence (P02768 25-609 K597P): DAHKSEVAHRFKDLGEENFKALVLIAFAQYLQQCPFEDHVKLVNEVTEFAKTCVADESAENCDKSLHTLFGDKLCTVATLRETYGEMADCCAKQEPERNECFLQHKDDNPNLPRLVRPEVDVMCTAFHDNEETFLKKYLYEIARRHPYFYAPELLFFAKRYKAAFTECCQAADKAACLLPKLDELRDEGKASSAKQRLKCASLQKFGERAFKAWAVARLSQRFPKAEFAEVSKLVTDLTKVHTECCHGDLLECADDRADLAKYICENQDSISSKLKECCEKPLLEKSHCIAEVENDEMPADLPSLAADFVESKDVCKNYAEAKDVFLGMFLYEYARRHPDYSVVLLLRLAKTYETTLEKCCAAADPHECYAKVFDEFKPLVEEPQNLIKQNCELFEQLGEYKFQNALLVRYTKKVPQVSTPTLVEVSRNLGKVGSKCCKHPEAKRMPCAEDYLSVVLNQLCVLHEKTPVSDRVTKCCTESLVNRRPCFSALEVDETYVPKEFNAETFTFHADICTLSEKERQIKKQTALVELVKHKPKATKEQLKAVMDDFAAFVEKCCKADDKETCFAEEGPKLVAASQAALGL
Experimental: as §1, §2, §3

[7] = target: T6, Wild type human serum albumin (human, UniProt P02768 25-609); assay: SPR, albumin over immobilized His-FcRn, pH 5.5, steady state
T6 construct: also called HSA; HSA Wt
T6 sequence (P02768 25-609): as the sequence (P02768 25-609 K597P) above, with P573K counted along it
Experimental: as §1, §2, §3

[8] = target: B2; assay: as above
Experimental: as §1, §2, §3

[9] = target: T7, N-terminally c-myc tagged Wt HSA (human, UniProt P02768 25-609); assay: as above
T7 construct: Secreted from yeast; a +2058 Da miscleaved leader species was reduced to below 5%; also called c-myc-HSA Wt; Cmyc-WT HSA
T7 sequence (P02768 other isoform, or with tags, fused parts or gaps): as the sequence (P02768 other isoform, or with tags, fused parts or gaps K573P K573P) above, with P583K counted along it
Experimental: as §1, §2, §3

[10] = target: B5; assay: SPR, albumin over immobilized His-FcRn, pH 5.5, 1:1 Langmuir
Experimental: as §1, §2, §3

Binder	Kd [1]	koff [1]	kon [1]	Kd [2]	koff [2]	kon [2]	Kd [5]	koff [5]	kon [5]	Kd [6]	koff [6]	kon [6]	further results
B1	280 nM	0.0034 s⁻¹	12000 M⁻¹ s⁻¹	1400 nM	0.013 s⁻¹	9200 M⁻¹ s⁻¹	–	–	–	–	–	–	–
B2	–	–	–	2700 nM	0.053 s⁻¹	20000 M⁻¹ s⁻¹	–	–	–	–	–	–	Kd [3]: 23 µM
B3	1540 nM	0.02 s⁻¹	13000 M⁻¹ s⁻¹	1200 nM	0.012 s⁻¹	10000 M⁻¹ s⁻¹	–	–	–	–	–	–	Kd [4]: 2400 nM; koff [4]: 0.013 s⁻¹; kon [4]: 5300 M⁻¹ s⁻¹
B4	–	–	–	–	–	–	1.3 µM	0.0401 s⁻¹	31200 M⁻¹ s⁻¹	1.9 µM	0.0622 s⁻¹	32700 M⁻¹ s⁻¹	Kd [7]: 232 µM; Kd [8]: 210 µM; Kd [9]: 468 µM
B5	–	–	–	–	–	–	360 µM	0.181 s⁻¹	500 M⁻¹ s⁻¹	190 µM	0.297 s⁻¹	1500 M⁻¹ s⁻¹	–
B6	–	–	–	–	–	–	–	–	–	–	–	–	Kd [10]: 1100 nM; koff [10]: 0.0419 s⁻¹; kon [10]: 36200 M⁻¹ s⁻¹
